According to paper PMC7023026, “A Label-Free Fluorescent Aptasensor for Detection of Staphylococcal Enterotoxin A Based on Aptamer-Functionalized Silver Nanoclusters”:

Target: Staphylococcal enterotoxin A (SEA) (Staphylococcus aureus, UniProt P0A0L2 25-257)
Sequence (P0A0L2 25-257): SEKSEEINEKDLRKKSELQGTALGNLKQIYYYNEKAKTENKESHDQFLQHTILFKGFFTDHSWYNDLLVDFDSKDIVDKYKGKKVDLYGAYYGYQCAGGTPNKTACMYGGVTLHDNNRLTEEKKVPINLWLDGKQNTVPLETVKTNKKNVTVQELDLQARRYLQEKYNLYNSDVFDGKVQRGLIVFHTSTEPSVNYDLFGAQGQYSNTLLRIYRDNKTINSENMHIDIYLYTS

B1: C6G5C6-apt (AgNC template) (structured_DNA)
DNA: CCCCCCGGGGGCCCCCCAGCAGCACAGAGGTCAGATGTACTTATGCATTTCCTCCCACGATCTTATTTGAGAGTGACCCTATGCGTGCTACCGTGAA
B1: binds.
